Where no end group is shown, it is not given here.
Molecular target: ECE-1 (Homo sapiens, UniProt P42892)
Test: not given
Details: 10 nmol peptide in 750 µl 0.2 M acetate buffer pH 5.5 (GLP-1 also at neutral pH), 0.25 µg recombinant ECE-1, 37 °C, up to 24 h, RP-HPLC C18, UV 214 nm, peak area with versus without enzyme, n = 2-3

ECE-1, sequence (P42892 whole entry, species assumed): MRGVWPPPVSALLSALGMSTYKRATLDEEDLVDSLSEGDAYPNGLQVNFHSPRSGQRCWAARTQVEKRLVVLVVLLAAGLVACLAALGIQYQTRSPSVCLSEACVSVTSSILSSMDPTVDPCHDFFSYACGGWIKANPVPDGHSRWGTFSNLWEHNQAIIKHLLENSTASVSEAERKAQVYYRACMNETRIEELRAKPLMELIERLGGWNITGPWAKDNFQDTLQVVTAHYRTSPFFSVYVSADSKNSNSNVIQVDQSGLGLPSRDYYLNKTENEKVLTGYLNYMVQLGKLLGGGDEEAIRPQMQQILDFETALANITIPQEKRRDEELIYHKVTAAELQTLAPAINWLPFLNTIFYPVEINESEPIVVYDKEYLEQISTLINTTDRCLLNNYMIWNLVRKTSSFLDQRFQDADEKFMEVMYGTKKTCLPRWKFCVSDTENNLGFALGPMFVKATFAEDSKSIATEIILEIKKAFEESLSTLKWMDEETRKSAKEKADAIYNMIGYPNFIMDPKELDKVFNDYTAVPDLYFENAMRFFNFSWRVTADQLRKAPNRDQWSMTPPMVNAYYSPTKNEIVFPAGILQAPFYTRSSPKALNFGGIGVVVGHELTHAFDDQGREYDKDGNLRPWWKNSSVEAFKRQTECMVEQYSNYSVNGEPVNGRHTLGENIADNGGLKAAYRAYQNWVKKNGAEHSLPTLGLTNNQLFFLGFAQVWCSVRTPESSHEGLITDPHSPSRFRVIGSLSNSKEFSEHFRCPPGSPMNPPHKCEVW

| Compound | In vitro peptide degradation by / resistance to ECE-1 (in words) |
| --- | --- |
| CC[C@H](C)[C@H](NC(=O)[C@H](Cc1ccccc1)NC(=O)[C@H](CC(C)C)NC(=O)[C@H](CCCNC(=N)N)NC(=O)[C@@H](NC(=O)[C@H](C)NC(=O)[C@H](CCC(=O)O)NC(=O)[C@H](CCC(=O)O)NC(=O)[C@H](CCC(=O)O)NC(=O)[C@H](CC(C)C)NC(=O)[C@H](Cc1ccc(O)cc1)NC(=O)[C@H](CO)NC(=O)[C@H](CO)NC(=O)[C@@H](NC(=O)[C@H](CC(=O)O)NC(=O)[C@H](CO)NC(=O)[C@@H](NC(=O)[C@H](Cc1ccccc1)NC(=O)[C@@H](NC(=O)CNC(=O)[C@H](CCC(=O)O)NC(=O)[C@H](C)NC(=O)[C@@H](N)Cc1c[nH]cn1)[C@@H](C)O)[C@@H](C)O)C(C)C)C(C)C)C(=O)N[C@@H](CCC(=O)O)C(=O)N[C@@H](Cc1c[nH]c2ccccc12)C(=O)N[C@@H](CC(C)C)C(=O)N[C@@H](CCCCN)C(=O)N[C@@H](CC(N)=O)C(=O)NCC(=O)NCC(=O)N1CCC[C@H]1C(=O)N[C@@H](CO)C(=O)N[C@@H](CO)C(=O)NCC(=O)N[C@@H](C)C(=O)N1CCC[C@H]1C(=O)N1CCC[C@H]1C(=O)N1CCC[C@H]1C(=O)N[C@@H](CO)C(N)=O [Chi3] | most ECE-1-resistant |
| HAEGTFTSDVSSYLEGQAAKEFIEWLKNGGPSSGAPPPS-NH2 [Chi2] | most ECE-1-resistant |

Same assay, conditions: pH 5.5

| Compound | In vitro peptide degradation by / resistance to ECE-1 (in words) |
| --- | --- |
| CC[C@H](C)[C@H](NC(=O)[C@H](Cc1ccccc1)NC(=O)[C@H](CCC(=O)O)NC(=O)[C@H](CCCCN)NC(=O)[C@H](C)NC(=O)[C@H](C)NC(=O)[C@H](CCC(N)=O)NC(=O)CNC(=O)[C@H](CCC(=O)O)NC(=O)[C@H](CC(C)C)NC(=O)[C@H](Cc1ccc(O)cc1)NC(=O)[C@H](CO)NC(=O)[C@H](CO)NC(=O)[C@@H](NC(=O)[C@H](CC(=O)O)NC(=O)[C@H](CO)NC(=O)[C@@H](NC(=O)[C@H](Cc1ccccc1)NC(=O)[C@@H](NC(=O)CNC(=O)[C@H](CCC(=O)O)NC(=O)CNC(=O)[C@@H](N)Cc1cnc[nH]1)[C@@H](C)O)[C@@H](C)O)C(C)C)C(=O)N[C@@H](C)C(=O)N[C@@H](Cc1c[nH]c2ccccc12)C(=O)N[C@@H](CC(C)C)C(=O)N[C@H](C(=O)N[C@@H](CCCCN)C(=O)NCC(=O)N[C@@H](CCCNC(=N)N)C(N)=O)C(C)C [GLP-1-G2] | ECE-1-sensitive |

Molecular target: SNAP-GLP-1R (pSNAP-GLP-1R) on HEK293-SNAP-GLP-1R cells (UniProt P43220)
Sequence (P43220 24-463): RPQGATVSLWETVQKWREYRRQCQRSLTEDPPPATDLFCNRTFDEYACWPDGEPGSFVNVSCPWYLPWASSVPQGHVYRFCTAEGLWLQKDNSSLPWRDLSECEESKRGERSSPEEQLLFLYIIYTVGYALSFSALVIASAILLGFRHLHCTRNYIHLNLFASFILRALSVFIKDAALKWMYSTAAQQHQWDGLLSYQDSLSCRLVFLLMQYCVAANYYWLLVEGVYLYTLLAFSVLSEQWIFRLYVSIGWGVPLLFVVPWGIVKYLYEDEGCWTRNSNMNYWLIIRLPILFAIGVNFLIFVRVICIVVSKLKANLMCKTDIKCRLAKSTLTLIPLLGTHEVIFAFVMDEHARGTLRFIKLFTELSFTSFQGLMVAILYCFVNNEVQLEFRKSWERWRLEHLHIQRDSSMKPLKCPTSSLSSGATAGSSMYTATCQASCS
Test: FRET or BRET
Details: not given

| Compound | Log Ki |
| --- | --- |
| Chi1 (GLP-1 with the exendin-4 Trp-cage added to its C-terminus) (peptide) | -8.2 Log (M) |
| Chi1, N-terminus D3 (asp3 derivative) (peptide) | -8.5 Log (M) |
| Chi1, N-terminus F1 (phe1 derivative) (peptide) | -6.4 Log (M) |
| exendin-4 (from UniProt P26349 48-87) (peptide) | -9.5 Log (M) |
| exendin-4(1-30) (peptide) | -9 Log (M) |
| exendin-4(1-30), N-terminus D3 (asp3 derivative) (peptide) | -9.2 Log (M) |
| exendin-4(1-30), N-terminus F1 (phe1 derivative) (peptide) | -7.5 Log (M) |
| exendin-4, N-terminus D3 (asp3 derivative) (peptide) | -9.2 Log (M) |
| exendin-phe1 (peptide) | -7.3 Log (M) |

Reference: publication PMC7664906 (International Journal of Molecular Sciences, 2020)
